Measured values taken from the RNAGym collection of RNA variant scans (doi:10.7554/elife.90254).

B1: LINE1-full (parent)
chain: UACGUAGGUGGUUUUCCCCUGAUAGUGCUAAGGGGGCCUGGAAGUUUGGACUGGGCAGAGCUCAACACAGCGUGGCAAAGUGGCUGUGGCUAGACUGCCUCUCUGGAUUCCUCGUCACUCAGCAGGGCAUCUCUGAGAGAAAUGCC

Variants of: B1
Experiment: self-cleavage, relative activity (ratio to wild type); higher = more cleavage; in vitro, sequencing; the parent is a self-cleaving ribozyme

| Variant | self-cleavage |
| --- | --- |
| AACGUAGGUGGUUUUCCCCUGAUAGUGCUAAGGGGGCCUGGAAGUUUGGACUGGGCAGAGCUCAACACAGCGUGGCAAAGUGGCUGUGGCUAGACUGCCUCUCUGGAUUCCUCGUCACUCAGCAGGGCAUCUCUGAGAGAAAUGCC [U1A] | 1.17 |
| AACGUAGGUGGUUUUCCCCUGAUUGUGCUAAGGGGGCCUGGAAGUUUGGACUGGGCAGAGCUCAACACAGCGUGGCAAAGUGGCUGUGGCUAGACUGCCUCUCUGGAUUCCUCGUCACUCAGCAGGGCAUCUCUGAGAGAAAUGCC [U1A A24U] | 1.28 |
| AACGUAGGUGGUUUUCCCCUGAUAGUGCUAGGGGGGCCUGGAAGUUUGGACUGGGCAGAGCUCAACACAGCGUGGCAAAGUGGCUGUGGCUAGACUGCCUCUCUGGAUUCCUCGUCACUCAGCAGGGCAUCUCUGAGAGAAAUGCC [U1A A31G] | 1.26 |
| AACGUAGGUGGUUUUCCCCUGAUAGUGCUAAGGGGGCCUGGGAGUUUGGACUGGGCAGAGCUCAACACAGCGUGGCAAAGUGGCUGUGGCUAGACUGCCUCUCUGGAUUCCUCGUCACUCAGCAGGGCAUCUCUGAGAGAAAUGCC [U1A A42G] | 1.35 |
| AACGUAGGUGGUUUUCCCCUGAUAGUGCUAAGGGGGCCUGGAUGUUUGGACUGGGCAGAGCUCAACACAGCGUGGCAAAGUGGCUGUGGCUAGACUGCCUCUCUGGAUUCCUCGUCACUCAGCAGGGCAUCUCUGAGAGAAAUGCC [U1A A43U] | 0.68 |
| AACGUAGGUGGUUUUCCCCUGAUAGUGCUAAGGGGGCCUGGAAGUUUGGGCUGGGCAGAGCUCAACACAGCGUGGCAAAGUGGCUGUGGCUAGACUGCCUCUCUGGAUUCCUCGUCACUCAGCAGGGCAUCUCUGAGAGAAAUGCC [U1A A50G] | 0.75 |
| AACGUAGGUGGUUUUCCCCUGAUAGUGCUAAGGGGGCCUGGAAGUUUGGACUGGGCAGAGCUCGACACAGCGUGGCAAAGUGGCUGUGGCUAGACUGCCUCUCUGGAUUCCUCGUCACUCAGCAGGGCAUCUCUGAGAGAAAUGCC [U1A A64G] | 0.64 |
| AACGUAGGUGGUUUUCCCCUGAUAGUGCUAAGGGGGCCUGGAAGUUUGGACUGGGCAGAGCUCAACCCAGCGUGGCAAAGUGGCUGUGGCUAGACUGCCUCUCUGGAUUCCUCGUCACUCAGCAGGGCAUCUCUGAGAGAAAUGCC [U1A A67C] | 0.3 |
| AACGUAGGUGGUUUUCCCCUGAUAGUGCUAAGGGGGCCUGGAAGUUUGGACUGGGCAGAGCUCAACACAGCGUGGCAAGGUGGCUGUGGCUAGACUGCCUCUCUGGAUUCCUCGUCACUCAGCAGGGCAUCUCUGAGAGAAAUGCC [U1A A79G] | 1.31 |
| AACGUAGGUGGUUUUCCCCUGAUAGUGCUAAGGGGGCCUGGAAGUUUGGACUGGGCAGAGCUCAACACAGCGUGGCAAUGUGGCUGUGGCUAGACUGCCUCUCUGGAUUCCUCGUCACUCAGCAGGGCAUCUCUGAGAGAAAUGCC [U1A A79U] | 0.91 |
| AACGUAGGUGGUUUUCCCCUGAUAGUGCUAAGGGGGCCUGGAAGUUUGGACUGGGCAGAGCUCAACACAGCGUGGCAAAGUGGCUGUGGCUAGACUGCCUCUCUGGGUUCCUCGUCACUCAGCAGGGCAUCUCUGAGAGAAAUGCC [U1A A107G] | 1.67 |
| AACGUAGGUGGUUUUCCCCUGAUAGUGCUAAGGGGGCCUGGAAGUUUGGACUGGGCAGAGCUCAACACAGCGUGGCAAAGUGGCUGUGGCUAGACUGCCUCUCUGGAUUCCUCGUCUCUCAGCAGGGCAUCUCUGAGAGAAAUGCC [U1A A117U] | 1.48 |
| AACGUAGGUGGUUUUCCCCUGAUAGUGCUAAGGGGGCCUGGAAGUUUGGACUGGGCAGAGCUCAACACAGCGUGGCAAAGUGGCUGUGGCUAGACUGCCUCUCUGGAUUCCUCGUCACUCAGCAGGGCCUCUCUGAGAGAAAUGCC [U1A A129C] | 2.51 |
| AACGUAGGUGGUUUUCCCCUGAUAGUGCUAAGGGGGCCUGGAAGUUUGGACUGGGCAGAGCUCAACACAGCGUGGCAAAGUGGCUGUGGCUAGACUGCCUCUCUGGAUUCCUCGUCACUCAGCAGGGCAUCUCUGAGGGAAAUGCC [U1A A138G] | 1.05 |
| AACGUAGGUGGUUUUCCCCUGAUAGUGCUAAGGGGGCCUGGAAGUUUGGACUGGGCAGAGCUCAACACAGCGUGGCAAAGUGGCUGUGGCUAGACUGCCUCUCUGGAUUCCUCGUCACUCAGCAGGGCAUCUCUGAGAGAUAUGCC [U1A A141U] | 1.42 |
| AACGUAGGUGGUUUUCCCCUGAUAGUGCUAAGGGGGCCUGGAAGUUUGGACUGGGCAGAGUUCAACACAGCGUGGCAAAGUGGCUGUGGCUAGACUGCCUCUCUGGAUUCCUCGUCACUCAGCAGGGCAUCUCUGAGAGAAAUGCC [U1A C61U] | 0.08 |
| AACGUAGGUGGUUUUCCCCUGAUAGUGCUAAGGGGGCCUGGAAGUUUGGACUGGGCAGAGCUCAACACAGCGUGGCAAAGUGGUUGUGGCUAGACUGCCUCUCUGGAUUCCUCGUCACUCAGCAGGGCAUCUCUGAGAGAAAUGCC [U1A C84U] | 0.22 |
| AACGUAGGUGAUUUUCCCCUGAUAGUGCUAAGGGGGCCUGGAAGUUUGGACUGGGCAGAGCUCAACACAGCGUGGCAAAGUGGCUGUGGCUAGACUGCCUCUCUGGAUUCCUCGUCACUCAGCAGGGCAUCUCUGAGAGAAAUGCC [U1A G11A] | 1.76 |
| AACGUAGGUGGUUUUCCCCUGAUACUGCUAAGGGGGCCUGGAAGUUUGGACUGGGCAGAGCUCAACACAGCGUGGCAAAGUGGCUGUGGCUAGACUGCCUCUCUGGAUUCCUCGUCACUCAGCAGGGCAUCUCUGAGAGAAAUGCC [U1A G25C] | 1.2 |
| AACGUAGGUGGUUUUCCCCUGAUAGUGCUAAGGGGGCCUAGAAGUUUGGACUGGGCAGAGCUCAACACAGCGUGGCAAAGUGGCUGUGGCUAGACUGCCUCUCUGGAUUCCUCGUCACUCAGCAGGGCAUCUCUGAGAGAAAUGCC [U1A G40A] | 1.26 |

| Variant | self-cleavage |
| --- | --- |
| AACGUAGGUGGUUUUCCCCUGAUAGUGCUAAGGGGGCCUGGAAGUUUGGACUGGGCAGAGCUCAACACACCGUGGCAAAGUGGCUGUGGCUAGACUGCCUCUCUGGAUUCCUCGUCACUCAGCAGGGCAUCUCUGAGAGAAAUGCC [U1A G70C] | 0.43 |
| AACGUAGGUGGUUUUCCCCUGAUAGUGCUAAGGGGGCCUGGAAGUUUGGACUGGGCAGAGCUCAACACAGCGUGGCAAAGUGGCUGUGGCUAGACUACCUCUCUGGAUUCCUCGUCACUCAGCAGGGCAUCUCUGAGAGAAAUGCC [U1A G97A] | 0.38 |
| AACGUAGGUGGUUUUCCCCUGAUAGUGCUAAGGGGGCCUGGAAGUUUGGACUGGGCAGAGCUCAACACAGCGUGGCAAAGUGGCUGUGGCUAGACUGCCUCUCUGAAUUCCUCGUCACUCAGCAGGGCAUCUCUGAGAGAAAUGCC [U1A G106A] | 1.44 |
| AACGUAGGUGGUUUUCCCCUGAUAGUGCUAAGGGGGCCUGGAAGUUUGGACUGGGCAGAGCUCAACACAGCGUGGCAAAGUGGCUGUGGCUAGACUGCCUCUCUGGAUUCCUCGUCACUCAGCAGCGCAUCUCUGAGAGAAAUGCC [U1A G126C] | 1.06 |
| AACGUAGGUGGUUUUCCCCUGAUAGUGCUAAGGGGGCCUGGAAGUUUGGACUGGGCAGAGCUCAACACAGCGUGGCAAAGUGGCUGUGGCUAGACUGCCUCUCUGGAUUCCUCGUCACUCAGCAGGCCAUCUCUGAGAGAAAUGCC [U1A G127C] | 1.51 |
| AACGUAGGUGGGUUUCCCCUGAUAGUGCUAAGGGGGCCUGGAAGUUUGGACUGGGCAGAGCUCAACACAGCGUGGCAAAGUGGCUGUGGCUAGACUGCCUCUCUGGAUUCCUCGUCACUCAGCAGGGCAUCUCUGAGAGAAAUGCC [U1A U12G] | 0.97 |
| AACGUAGGUGGUCUUCCCCUGAUAGUGCUAAGGGGGCCUGGAAGUUUGGACUGGGCAGAGCUCAACACAGCGUGGCAAAGUGGCUGUGGCUAGACUGCCUCUCUGGAUUCCUCGUCACUCAGCAGGGCAUCUCUGAGAGAAAUGCC [U1A U13C] | 0.91 |
| AACGUAGGUGGUUUUCCCCAGAUAGUGCUAAGGGGGCCUGGAAGUUUGGACUGGGCAGAGCUCAACACAGCGUGGCAAAGUGGCUGUGGCUAGACUGCCUCUCUGGAUUCCUCGUCACUCAGCAGGGCAUCUCUGAGAGAAAUGCC [U1A U20A] | 0.81 |
| AACGUAGGUGGUUUUCCCCUGACAGUGCUAAGGGGGCCUGGAAGUUUGGACUGGGCAGAGCUCAACACAGCGUGGCAAAGUGGCUGUGGCUAGACUGCCUCUCUGGAUUCCUCGUCACUCAGCAGGGCAUCUCUGAGAGAAAUGCC [U1A U23C] | 2.04 |
| AACGUAGGUGGUUUUCCCCUGAUAGCGCUAAGGGGGCCUGGAAGUUUGGACUGGGCAGAGCUCAACACAGCGUGGCAAAGUGGCUGUGGCUAGACUGCCUCUCUGGAUUCCUCGUCACUCAGCAGGGCAUCUCUGAGAGAAAUGCC [U1A U26C] | 1.93 |
| AACGUAGGUGGUUUUCCCCUGAUAGUGCUAAGGGGGCCUGGAAGUGUGGACUGGGCAGAGCUCAACACAGCGUGGCAAAGUGGCUGUGGCUAGACUGCCUCUCUGGAUUCCUCGUCACUCAGCAGGGCAUCUCUGAGAGAAAUGCC [U1A U46G] | 0.96 |
| AACGUAGGUGGUUUUCCCCUGAUAGUGCUAAGGGGGCCUGGAAGUUCGGACUGGGCAGAGCUCAACACAGCGUGGCAAAGUGGCUGUGGCUAGACUGCCUCUCUGGAUUCCUCGUCACUCAGCAGGGCAUCUCUGAGAGAAAUGCC [U1A U47C] | 1.02 |
| AACGUAGGUGGUUUUCCCCUGAUAGUGCUAAGGGGGCCUGGAAGUUGGGACUGGGCAGAGCUCAACACAGCGUGGCAAAGUGGCUGUGGCUAGACUGCCUCUCUGGAUUCCUCGUCACUCAGCAGGGCAUCUCUGAGAGAAAUGCC [U1A U47G] | 1.53 |
| AACGUAGGUGGUUUUCCCCUGAUAGUGCUAAGGGGGCCUGGAAGUUUGGACCGGGCAGAGCUCAACACAGCGUGGCAAAGUGGCUGUGGCUAGACUGCCUCUCUGGAUUCCUCGUCACUCAGCAGGGCAUCUCUGAGAGAAAUGCC [U1A U52C] | 1.64 |
| AACGUAGGUGGUUUUCCCCUGAUAGUGCUAAGGGGGCCUGGAAGUUUGGACUGGGCAGAGCUCAACACAGCGAGGCAAAGUGGCUGUGGCUAGACUGCCUCUCUGGAUUCCUCGUCACUCAGCAGGGCAUCUCUGAGAGAAAUGCC [U1A U73A] | 1.67 |
| AACGUAGGUGGUUUUCCCCUGAUAGUGCUAAGGGGGCCUGGAAGUUUGGACUGGGCAGAGCUCAACACAGCGUGGCAAAGUGGCGGUGGCUAGACUGCCUCUCUGGAUUCCUCGUCACUCAGCAGGGCAUCUCUGAGAGAAAUGCC [U1A U85G] | 0.12 |
| AACGUAGGUGGUUUUCCCCUGAUAGUGCUAAGGGGGCCUGGAAGUUUGGACUGGGCAGAGCUCAACACAGCGUGGCAAAGUGGCUGCGGCUAGACUGCCUCUCUGGAUUCCUCGUCACUCAGCAGGGCAUCUCUGAGAGAAAUGCC [U1A U87C] | 0.5 |
| AACGUAGGUGGUUUUCCCCUGAUAGUGCUAAGGGGGCCUGGAAGUUUGGACUGGGCAGAGCUCAACACAGCGUGGCAAAGUGGCUGUGGCAAGACUGCCUCUCUGGAUUCCUCGUCACUCAGCAGGGCAUCUCUGAGAGAAAUGCC [U1A U91A] | 1.27 |
| AACGUAGGUGGUUUUCCCCUGAUAGUGCUAAGGGGGCCUGGAAGUUUGGACUGGGCAGAGCUCAACACAGCGUGGCAAAGUGGCUGUGGCCAGACUGCCUCUCUGGAUUCCUCGUCACUCAGCAGGGCAUCUCUGAGAGAAAUGCC [U1A U91C] | 0.15 |
